In experiment [1] the target is T1, HGFRECD-His recombinant protein (human, UniProt P08581 25-932).
T1 construct: human HGFR (c-MET) recombinant protein, extracellular domain; also called HGFR-His; HGFR-His recombinant protein; source: bought: Sino Biological
Put plainly: pull-down; EpEX-Fc and HGFR-His recombinant protein (2.5 μg/ml); IP with Dynabeads Protein G, Western blotting with anti-6× His tag antibody. The note with it: both partners purified. (In western blotting, separated proteins are transferred to a membrane and probed.)

For experiment [2], the target named is T1, HGFRECD-His recombinant protein. In words: ELISA; HGFR-His recombinant protein (2 μg/ml) added to plates coated with EGF-like-domain deletion mutant-Fc (1 μg/ml); TMB colorimetric peroxidase assay. The conditions noted are these: both partners purified. Background: ELISA stands for enzyme-linked immunosorbent assay.

T1 sequence (P08581 25-932): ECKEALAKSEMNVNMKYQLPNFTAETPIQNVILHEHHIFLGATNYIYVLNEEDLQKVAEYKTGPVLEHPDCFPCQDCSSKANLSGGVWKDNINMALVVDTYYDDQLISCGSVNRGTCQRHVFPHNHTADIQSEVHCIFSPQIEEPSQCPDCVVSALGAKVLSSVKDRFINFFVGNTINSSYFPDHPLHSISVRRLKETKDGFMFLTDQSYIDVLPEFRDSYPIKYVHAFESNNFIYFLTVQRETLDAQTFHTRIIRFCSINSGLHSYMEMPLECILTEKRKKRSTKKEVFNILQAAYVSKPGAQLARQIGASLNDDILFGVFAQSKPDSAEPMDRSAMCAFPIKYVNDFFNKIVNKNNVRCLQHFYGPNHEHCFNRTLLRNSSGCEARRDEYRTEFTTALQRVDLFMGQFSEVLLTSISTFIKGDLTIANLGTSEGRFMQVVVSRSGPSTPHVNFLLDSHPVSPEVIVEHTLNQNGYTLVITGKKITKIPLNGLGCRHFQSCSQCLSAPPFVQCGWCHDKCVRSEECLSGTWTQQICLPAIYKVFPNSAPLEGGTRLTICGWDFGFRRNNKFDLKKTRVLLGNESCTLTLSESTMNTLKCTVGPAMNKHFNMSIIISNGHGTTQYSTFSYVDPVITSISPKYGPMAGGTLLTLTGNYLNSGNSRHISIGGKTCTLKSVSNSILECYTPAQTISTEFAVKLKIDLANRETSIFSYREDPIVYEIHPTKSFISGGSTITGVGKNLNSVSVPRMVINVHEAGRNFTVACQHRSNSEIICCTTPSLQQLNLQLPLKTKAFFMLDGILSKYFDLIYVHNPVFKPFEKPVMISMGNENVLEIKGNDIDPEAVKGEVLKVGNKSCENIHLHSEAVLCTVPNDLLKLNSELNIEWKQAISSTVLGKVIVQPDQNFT

B1: EpEX-Fc recombinant protein (Fc fusion, human, UniProt P16422 24-265, looked up)
chain: QEECVCENYKLAVNCFVNNNRQCQCTSVGAQNTVICSKLAAKCLVMKAEMNGSKLGRRAKPEGALQNNDGLYDPDCDESGLFKAKQCNGTSMCWCVNTAGVRRTDKDTEITCSERVRTYWIIIELKHKAREKPYDSKSLRTALQKEITTRYQLDPKFITSILYENNVITIDLVQNSSQKTQNDVDIADVAYYFEKDVKGESLFHSKKMDLTVNGEQLDLDPGQTLIYYVDEKAPEFSMQGLK
notes: also called recombinant EpEX-Fc
With B1, the binding result in experiment [1] was “binds”.

B2: EpEX_(ΔEGFI)-Fc (Fc fusion, human, UniProt P16422 24-265, looked up)
chain: QEESKLAAKCLVMKAEMNGSKLGRRAKPEGALQNNDGLYDPDCDESGLFKAKQCNGTSMCWCVNTAGVRRTDKDTEITCSERVRTYWIIIELKHKAREKPYDSKSLRTALQKEITTRYQLDPKFITSILYENNVITIDLVQNSSQKTQNDVDIADVAYYFEKDVKGESLFHSKKMDLTVNGEQLDLDPGQTLIYYVDEKAPEFSMQGLK
notes: EpEX, extracellular domain of EpCAM, with EGF-like domain I (amino acids 27–59) deleted; also called EGF-like-domain deletion mutant-Fc
Turning to B2, the binding result in experiment [2] is “binds”.

B3: EpEX_(ΔEGFII)-Fc (Fc fusion, human, UniProt P16422 24-265, looked up)
chain: QEECVCENYKLAVNCFVNNNRQCQCTSVGAQNTVICSKLAAKSERVRTYWIIIELKHKAREKPYDSKSLRTALQKEITTRYQLDPKFITSILYENNVITIDLVQNSSQKTQNDVDIADVAYYFEKDVKGESLFHSKKMDLTVNGEQLDLDPGQTLIYYVDEKAPEFSMQGLK
notes: EpEX, extracellular domain of EpCAM, with EGF-like domain II (amino acids 66–135) deleted; also called EGF-like-domain deletion mutant-Fc
Consider B3, for which the binding result in experiment [2] is reported as “binds”.

These data come from publication PMC10404369, “Epithelial cell adhesion molecule (EpCAM) regulates HGFR signaling to promote colon cancer progression and metastasis” (Journal of Translational Medicine, 2023).
